From patent US20030206886A1 (UNIVERSITY OF MEDICINE AND DENTISTRY OF NEW JERSEY, published 2003) come the findings set out here.

The target in assay [1] is T1, murine IL-10 receptor IgG immunoadhesin (murine, UniProt Q61727 17-241).
T1 construct: Used as specificity control; also called murine IL-10 R immunoadhesin; murine IL-10 receptor immunoadhesin; not shown: IgG backbone
T1 sequence (looked up): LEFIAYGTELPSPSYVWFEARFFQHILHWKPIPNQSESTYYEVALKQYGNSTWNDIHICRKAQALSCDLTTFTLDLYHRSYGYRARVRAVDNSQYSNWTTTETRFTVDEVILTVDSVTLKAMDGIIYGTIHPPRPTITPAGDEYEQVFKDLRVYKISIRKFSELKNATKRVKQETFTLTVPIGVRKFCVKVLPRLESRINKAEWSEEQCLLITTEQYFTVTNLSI
Nature of the assay: bead depletion assay, FIG. 3 top.

The target in assay [2] is T2, human IL-10 receptor immunoadhesin (isotype not stated, control of FIG. 3 bottom) (human, UniProt Q13651 22-235).
T2 construct: extracellular domain; not shown: human IgG1 or IgA1 hinge-CH2-CH3
T2 sequence (looked up): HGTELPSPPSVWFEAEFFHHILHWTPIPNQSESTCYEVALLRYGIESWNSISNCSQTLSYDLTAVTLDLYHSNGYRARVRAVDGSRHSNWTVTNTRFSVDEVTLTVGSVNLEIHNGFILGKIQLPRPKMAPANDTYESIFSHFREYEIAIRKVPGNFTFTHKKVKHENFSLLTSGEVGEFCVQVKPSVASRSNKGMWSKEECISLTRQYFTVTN
As to the kind of experiment: ELISA inhibition, FIG. 3 bottom.

For assay [3], the target named is T1, murine IL-10 receptor IgG immunoadhesin. Nature of the assay: bead depletion assay (immunoadhesin on beads, unbound hIL-10 in filtrate by ELISA), FIG. 1 top. Background: ELISA stands for enzyme-linked immunosorbent assay.
The target in assay [4] is T3, murine IL-4 receptor IgG immunoadhesin (murine, UniProt P16382 26-233).
T3 construct: Tested as concentrated supernatant of vaccinia-infected cells; also called murine IL-4 receptor immunoadhesin; mIL-4R IgG immunoadhesin; not shown: IgG backbone
T3 sequence (looked up): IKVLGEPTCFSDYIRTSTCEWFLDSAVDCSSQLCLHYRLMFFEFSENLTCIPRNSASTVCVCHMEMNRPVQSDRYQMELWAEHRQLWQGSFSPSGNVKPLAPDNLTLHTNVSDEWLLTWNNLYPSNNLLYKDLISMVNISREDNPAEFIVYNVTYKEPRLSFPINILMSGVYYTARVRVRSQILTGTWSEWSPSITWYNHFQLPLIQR
The assay is described as above.

For assay [5], the target named is T4, human IL-10 receptor IgG immunoadhesin (human, UniProt Q13651 22-235).
T4 construct: extracellular domain; Tested as concentrated supernatant of cells infected with recombinant vaccinia; also called human IL-10R adhesin; human IL-10 R adhesin; not shown: human IgG1 heavy chain hinge, CH2 and CH3 domains, amplified from ARH-77 cDNA; joined through a SalI site; residue limit
T4 sequence (looked up): T2 sequence (looked up)
As to the kind of experiment: bead depletion assay, unbound hIL-10 by ELISA, FIG. 1 top.

B1: murine IL-4 (ligand, UniProt P07750 21-140, looked up)
chain: HIHGCDKNHLREIIGILNEVTGEGTPCTEMDVPNVLTATKNTTESELVCRASKVLRIFYLKHGKTPCLKKNSSVLMELQRLFRAFRCLDSSISCTMNESKSTSLKDFLESLKSIMQMDYS
notes: also called mIL-4
Turning to B1, the binding result in assay [1] is reported as “no binding (tested: 250 µl of 200 pg/100 µl of mIL-4)”; in assay [2], “no binding”.

B2: human IL-10 (ligand, UniProt P22301 19-178, looked up)
chain: SPGQGTQSENSCTHFPGNLPNMLRDLRDAFSRVKTFFQMKDQLDNLLLKESLLEDFKGYLGCQALSEMIQFYLEEVMPQAENQDPDIKAHVNSLGENLKTLRLRLRRCHRFLPCENKSKAVEQVKNAFNKLQEKGIYKAMSEFDIFINYIEAYMTMKIRN
notes: also called hIL-10
For B2, the figures for the binding result in assay [3], in assay [4] and in assay [5] were “no binding (tested: 250 µl of 200 pg/100 µl of hIL-10)”, “no binding (tested: 250 µl of 200 pg/100 µl of hIL-10)” and “binds”, respectively.
